Results on three molecules are retold here after article PMC3348928, “Ordered Self-Assembly Mechanism of a Spherical Oncoprotein Oligomer Triggered by Zinc Removal and Stabilized by an Intrinsically Disordered Domain” (PLoS ONE, 2012).

In data set [1] the target is E7 (Human papillomavirus type 16) (UniProt P03129). Particulars: cited from earlier work.
Data set [2] concerns the target Recombinant E7 HPV-16 protein (human papillomavirus type 16 E7 oncoprotein) (human papillomavirus type 16) (UniProt P03129). Put plainly: thioflavin T fluorescence kinetics; ThT traces at different initial E7 concentrations after EDTA, analysed with the kinetically limited (KL) assembly model of Zlotnick; 10 mM sodium phosphate pH 7.0, 1 mM DTT, 20 µM ThT.
Data set [3] has the same target. Put plainly: thioflavin T fluorescence kinetics; 10 mM sodium phosphate pH 7.0, 1 mM DTT, 20 µM ThT; triggered by 1.0 mM EDTA; 15 µM protein (Figure 3).
Data set [4] shares this target. The data set is described as follows: thioflavin T fluorescence kinetics; 10 mM sodium phosphate pH 7.0, 1 mM DTT, 20 µM ThT; triggered by 1.0 mM TPEN; 15 µM protein.
Data set [5] concerns the molecule itself. The data set is described as follows: dynamic light scattering; 15 µM protein, 10 mM sodium phosphate pH 7.0, 1.0 mM DTT, 25°C; after addition of 1.0 mM EDTA (zinc removal); E7 at the plateau, E7C after 2 h and 24 h.

Where only a bound is given, the exact number is not on record here.

Turning to E7 (from UniProt P03129), the Kd in data set [1] was 1000 nM.

Regarding “Recombinant E7 HPV-16 protein (human papillomavirus type 16 E7 oncoprotein) (from UniProt P03129 1-98) (natural protein)”, in data set [2], the overall average time for each monomer added at 20 µM is 28 s and the z-nucleus size n (KL model) was 1.2. In data set [3], the half-life of the slow increase in ThT binding (oligomerisation phase) was 10 min and the half-life of the slow oligomerization phase, EDTA was below 8 min. For the same molecule, the half-life of the slow oligomerization phase, TPEN in data set [4] is below 6 min.

B1: E7 HPV-16 C-terminal domain, spanning residues 40-98 (domain or fragment, human papillomavirus type 16, UniProt P03129 40-98, looked up)
chain: GPAGQAEPDRAHYNIVTFCCKCDSTLRLCVQSTHVDIRTLEDLLMGTLGIVCPICSQKP
notes: The introduction gives 58 amino acids for E7C, but residues 40-98 are 59; also called E7C; source: recombinant, expressed and purified as previously described [52]
As to B1, the binding result in data set [5] is on record as “binds”.
